B1: 4H5 PR3 (designed binder)
chain: EVVAATPTSLLISWRHPHFPTRYYRITYGETGGNSPVQEFTVPLQPPTATISGLKPGVDYTITVYAVTVAQNGHELITPISINYRT
B2: 4′H5 PR4 (designed binder)
chain: EVVAATPTSLLISWRHPHFPTRYYRITYGETGGNSPVQEFTVPLQPPTATISGLKPGVDYTITVYAVTLAQNGHELFTPISINYRT
B3: 4′C9 PR4 (designed binder)
chain: EVVAATPTSLLISWRHPHFPTRYYRITYGETGGNSPVQEFTVPLQPPTATISGLKPGVDYTITVYAVTLGPNDHELMTPISINYRT
B4: 4′C5 PR4 (designed binder)
chain: EVVAATPTSLLISWRHPHFPTRYYRITYGETGGNSPVQEFTVPLQPPTATISGLKPGVDYTITVYAVTLGLNDHELITPISINYRT
B5: 4′D8 PR4 (designed binder)
chain: EVVAATPTSLLISWRHPHFPTRYYRITYGETGGNSPVQEFTVPLQPPTATISGLKPGVDYTITVYAVTLAQNGHELYTPISINYRT
B6: 4′B8 PR4 (designed binder)
chain: EVVAATPTSLLISWRHPHFPTRYYRITYGETGGNSPVQEFTVPLQPPTATISGLKPGVDYTITVYAVTVAQNDHKLFIPISINYRT
B7: 4′G12 PR4 (designed binder)
chain: EVVAATPTSLLISWRHPHFPTRYYRITYGETGGNSPVQEFTVPLQPPTATISGLKPGVDYTITVYAVTVAWNDHEIYTPISINYRT
B8: 4′H12 PR4 (designed binder)
chain: EVVAATPTSLLISWRHPHFPTRYYRITYGETGGNSPVQEFTVPLQPPTATISGLKPGVDYTITVYAVTVAHNDHELLTPISINYRT
B9: 4′B3 PR4 (designed binder)
chain: EVVAATPTSLLISWRHPHFPTRYYRITYGETGGNSPVQEFTVPLQPPTATISGLKPGVDYTITVYAVTMAQNNRELLTPISINYRT
B10: 4′A5 PR4 (designed binder)
chain: EVVAATPTSLLISWRHPHFPTRYYRITYGETGGNSPVQEFTVPLQPPTATISGLKPGVDYTITVYAVTLAQNDHELLTPISINYRT
B11: 4′G4 PR4 (designed binder)
chain: EVVAATPTSLLISWRHPHFPTRYYRITYGETGGNSPVQEFTVPLQPPTATISGLKPGVDYTITVYAVTVAQNDRELLTPISINYRT
B12: 4′H7 PR4 (designed binder)
chain: EVVAATPTSLLISWRHPHFPTRYYRITYGETGGNSPVQEFTVPLQPPTATISGLKPGVDYTITVYAVTLAHNDHELLTPISINYRT
B13: 4′E7 PR4 (designed binder)
chain: EVVAATPTSLLISWRHPHFPTRYYRITYGETGGNSPVQEFTVPLQPPTATISGLKPGVDYTITVYAVTWAQNDHELLTPISINYRT
B14: 4′B11 PR4 (designed binder)
chain: EVVAATPTSLLISWRHPHFPTRYYRITYGETGGNSPVQEFTVPLQPPTATISGLKPGVDYTITVYAVTMAHNDHELLTPISINYRT
B15: 4′D6 PR4 (designed binder)
chain: EVVAATPTSLLISWRHPHFPTRYYRITYGETGGNSPVQEFTVPLQPPTATISGLKPGVDYTITVYAVTMAQNDHELMTPISINYRT
B16: 4′B7 PR4 (designed binder)
chain: EVVAATPTSLLISWRHPHFPTRYYRITYGETGGNSPVQEFTVPLQPPTATISGLKPGVDYTITVYAVTVAQNNHELLTPISINYRT
B17: 2′E4-PR4 (designed binder)
chain: VSDVPRDLEVVAATPTSLLISWRHPHFPTRYYRITYGETGGNSPVQEFTVPLQPPTATISGLKPGVDYTITVYAVTVHWNGHELMTPISINYRT
B18: 2′C6-PR4 (designed binder)
chain: VSDVPRDLEVVAATPTSLLISWRHPHFPTRYYRITYGETGGNSPVQEFTVPLQPPTATISGLKPGVDYTITVYAVTMGFMAHELMVPISINYRT
B19: 2′H4-PR4 (designed binder)
chain: VSDVPRDLEVVAATPTSLLISWRHPHFPTRYYRITYGETGGNSPVQEFTVPLQPPTATISGLKPGVDYTITVYAVTVGPNERMLMTPISINYRT
B20: 2′D6-PR4 (designed binder)
chain: VSDVPRDLEVVAATPTSLLISWRHPHFPTRYYRITYGETGGNSPVQEFTVPLQPPTATISGLKPGVDYTITVYAVTVTHNGHPLMTPISINYRT
B21: 1′DelC5 PR4 (designed binder)
chain: EVVAATPTSLLISWRHPHFPTRYYRITYGETGGNSPVQEFTVPLQPPTATISGLKPGVDYTITVYAVTLAQNDHEIMTPISINYRT
notes: in vitro translated
B22: 1′DelG11 PR4 (designed binder)
chain: EVVAATPTSLLISWRHPHFPTRYYRITYGETGGNSPVQEFTVPLQPPTATISGLKPGVDYTITVYAVTLAQNGHVLITPISINYRT
notes: in vitro translated
B23: 1′DelH9 PR4 (designed binder)
chain: EVVAATPTSLLISWRHPHFPTRYYRITYGETGGNSPVQEFTVPLQPPTATISGLKPGVDYTITVYAVTVGQNDHELITPISINYRT
notes: in vitro translated
B24: 1′DelG9 PR4 (designed binder)
chain: EVVAATPTSLLISWRHPHFPTRYYRITYGETGGNSPVQEFTVPLQPPTATISGLKPGVDYTITVYAVTVAQSDHELMTPISINYRT
notes: in vitro translated
B25: 1′DelH7 PR4 (designed binder)
chain: EVVAATPTSLLISWRHPHFPTRYYRITYGETGGNSPVQEFTVPLQPPTATISGLKPGVDYTITVYAVTVGQNDQELLTPISINYRT
notes: in vitro translated
B26: 1′DelC6 PR4 (designed binder)
chain: EVVAATPTSLLISWRHPHFPTRYYRITYGETGGNSPVQEFTVPLQPPTATISGLKPGVDYTITVYAVTVAQNEHELLTPISINYRT
notes: in vitro translated
B27: 1′DelD3 PR4 (designed binder)
chain: EVVAATPTSLLISWRHPHFPTRYYRITYGETGGNSPVQEFTVPLQPPTATISGLKPGVDYTITVYAVTLAQNNHELITPISINYRT
notes: in vitro translated
B28: 1′DelB10 PR4 (designed binder)
chain: EVVAATPTSLLISWRHPHFPTRYYRITYGETGGNSPVQEFTVPLQPPTATISGLKPGVDYTITVYAVTVARNDHELMTPISINYRT
notes: in vitro translated
B29: 1′DelA4 PR4 (designed binder)
chain: EVVAATPTSLLISWRHPHFPTRYYRITYGETGGNSPVQEFTVPLQPPTATISGLKPGVDYTITGYAVTVAQNDHELFTPISINYRT
notes: in vitro translated

Target: T1, human vascular endothelial growth factor receptor-2 Fc chimera (KDR-Fc) (human, UniProt P35968 20-764)
T1 construct: range 1-764; also called human VEGFR-2; not shown: human IgG1 Fc
Test: radioactive equilibrium binding, 1 nM KDR-Fc, % of input
Procedure, shortened: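 ³⁵S-Met-labelled fibronectin-based scaffold proteins, made by reticulocyte-lysate translation and Flag-purified, were held at 0.2 or 0.5 nM with 0–200 nM receptor-Fc for 1 h at 30 °C in buffer B. Complexes were captured on Protein A beads, washed and KOH-eluted. Bound fraction is eluted radioactivity as % of input, minus receptor-free background, fitted to one-site binding.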
T1 sequence (P35968 20-764 limits assumed, change not shown, form in doubt): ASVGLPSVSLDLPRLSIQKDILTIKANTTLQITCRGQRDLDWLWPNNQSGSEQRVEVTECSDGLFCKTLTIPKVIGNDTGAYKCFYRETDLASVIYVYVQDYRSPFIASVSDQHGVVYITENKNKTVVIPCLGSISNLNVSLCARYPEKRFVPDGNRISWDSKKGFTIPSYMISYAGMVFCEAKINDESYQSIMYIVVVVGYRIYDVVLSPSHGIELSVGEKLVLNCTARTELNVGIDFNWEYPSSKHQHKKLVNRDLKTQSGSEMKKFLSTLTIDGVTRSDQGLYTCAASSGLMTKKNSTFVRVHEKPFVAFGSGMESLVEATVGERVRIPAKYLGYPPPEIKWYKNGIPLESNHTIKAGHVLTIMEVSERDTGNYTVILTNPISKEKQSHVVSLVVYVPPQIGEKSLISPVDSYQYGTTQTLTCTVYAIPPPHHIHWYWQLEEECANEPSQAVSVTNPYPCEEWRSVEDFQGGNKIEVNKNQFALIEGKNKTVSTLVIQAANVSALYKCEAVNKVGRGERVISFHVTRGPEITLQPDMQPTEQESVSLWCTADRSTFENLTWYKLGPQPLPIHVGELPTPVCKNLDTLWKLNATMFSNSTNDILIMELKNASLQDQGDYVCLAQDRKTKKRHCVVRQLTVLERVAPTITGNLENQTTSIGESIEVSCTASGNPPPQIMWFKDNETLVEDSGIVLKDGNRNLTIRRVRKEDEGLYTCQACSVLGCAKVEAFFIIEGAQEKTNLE

Compared with B1, B2 is higher in “Binding to 1 nM KDR, %” value: 14% for the first, 18% for the second.

Going from B3 to B4, the “Binding to 1 nM KDR, %” value falls from 29% to 27%.

Compared with B5, B6 is lower in “Binding to 1 nM KDR, %” value: 26% for the first, 20% for the second.

Going from B7 to B8, the “Binding to 1 nM KDR, %” value falls from 21% to 17%.

Going from B9 to B10, the “Binding to 1 nM KDR, %” value falls from 42% to 16%.

Going from B11 to B12, the “Binding to 1 nM KDR, %” value rises from 19% to 29%.

First: B13
Second: B14
The “Binding to 1 nM KDR, %” value of the first is lower: 17% for the first, 25% for the second.

First: B15
Second: B16
The “Binding to 1 nM KDR, %” value of the first is lower: 14% for the first, 16% for the second.

Going from B17 to B18, the “Binding to 1 nM KDR, %” value falls from 22% to 16%.

Compared with B19, B20 is higher in “Binding to 1 nM KDR, %” value: 17% for the first, 22% for the second.

Target: T2, human vascular endothelial growth factor receptor-2 Fc chimera (KDR-Fc) (human, UniProt P35968 20-764)
T2 construct: range 1-764; Purchased from R&D Systems; also called hKDR; human VEGF-R2-Fc; not shown: human IgG1 Fc
Test: radioactive equilibrium binding, 1 nM KDR-Fc
Experimental: To prepare ³⁵S-labeled binding proteins for analysis, mRNA was prepared as described above for RNA-protein fusion production but the linker ligation step was omitted. The mRNA was expressed using rabbit reticulocyte lysate translation kit (Ambion) in the presence of ³⁵S-labeled Met at 30° C. for 1 hour. Expressed protein was purified on M2-agarose Flag beads (Sigma) as described above. This procedure produced the encoded protein without the nucleic acid tail. In a direct binding assay, VEGF-R2-Fc fusions in concentrations ranging from 0 to 200 nM were added to a constant concentration of the purified protein (0.2 or 0.5 nM) and incubated at 30° C. for 1 hour in buffer B. The receptor-binder complexes were captured using Protein A magnetic beads for another 10 minutes at room temperature using a Kingfisher™ The beads were washed with six reaction volumes of buffer B. The protein was eluted from the beads with 100 μL of 0.1 M KOH. 50 μL of the reaction mixture and elution were dried onto a LumaPlate-96 (Packard) and the amount of ³⁵S on the plate was measured using a TopCount NXT instrument (Packard). The amount of fibronectin-based scaffold protein bound to the target was estimated as a percent of radioactivity eluted from Protein A magnetic beads compare to radioactivity in the reaction mixture. Nonspecific binding of fibronectin-based scaffold proteins to the beads was determined by measuring binding in the absence of KDR-Fc and represented less than 1-2% of the input. Specific binding was obtained through subtraction of nonspecific binding from total binding. Data was analyzed using the GraphPad Prizm software (GraphPad Software, Inc, San Diego, Calif.), fitted using a one site, non-linear binding equation.
T2 sequence (P35968 20-764 limits assumed, change not shown, form in doubt): as above

B21 and B22 are the same in “Binding to 1 nM KDR, %” value: 11% for the first, 11% for the second.

B23 and B24 are the same in “Binding to 1 nM KDR, %” value: 10% for the first, 10% for the second.

Compared with B25, B26 is higher in “Binding to 1 nM KDR, %” value: 11% for the first, 12% for the second.

Compared with B27, B28 is lower in “Binding to 1 nM KDR, %” value: 12% for the first, 11% for the second.

With B29 the “Binding to 1 nM KDR, %” value was 13%.
